# Assay results as given in patent US20140179898A1.
# Target: IgG1-type humanized monoclonal antibody
# Assay: stepwise pH affinity chromatography (bound at pH 7.0, elution buffer pH 4.0), bought column
substance,measurement,value
HiTrap rProtein A FF (GE Healthcare) (from UniProt P38507 37-327),pH of the antibody's elution peak,3.7 pH
